expression_or_secretion data for one substance are collected here from PMC11699195.

This series in a line: immunoblot, H460, A549, HCC827 cells. The note with it: glycan gained; control: mock vector.

PD-L1: RPN1-HA overexpression: the expression_or_secretion entry is “increases”.
